Assay results taken from patent publication US20160272683A1 (Novo Nordisk, published 2016).
Numbered stars: 1 amine (or outer) side, 2 acyl side, 3 side chain; on linkers, the order of the positions; unused ones are H or OH. * marks the point of attachment. C18 diacid = O=C(O)CCCCCCCCCCCCCCCCC(=O)*; γGlu = O=C(O)[C@H](CCC(=O)[*:2])N[*:1]

T1: human calcitonin receptor (human, UniProt P30988 25-474)
T1 construct: whole, on cells; also called hCT-R; hCTR
T1 sequence (looked up): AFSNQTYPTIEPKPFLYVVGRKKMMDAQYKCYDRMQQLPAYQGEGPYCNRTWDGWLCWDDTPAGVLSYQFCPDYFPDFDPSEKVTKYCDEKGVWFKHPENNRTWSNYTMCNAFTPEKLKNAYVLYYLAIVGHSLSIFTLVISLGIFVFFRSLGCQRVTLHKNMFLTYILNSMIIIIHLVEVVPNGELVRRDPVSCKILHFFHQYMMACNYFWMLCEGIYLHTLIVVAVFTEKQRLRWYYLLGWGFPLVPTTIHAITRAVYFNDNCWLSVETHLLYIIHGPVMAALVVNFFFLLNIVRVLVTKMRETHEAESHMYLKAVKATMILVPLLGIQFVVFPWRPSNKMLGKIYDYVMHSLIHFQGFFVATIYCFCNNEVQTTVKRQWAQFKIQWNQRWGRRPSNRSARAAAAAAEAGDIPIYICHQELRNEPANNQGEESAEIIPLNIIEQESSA

B1: [N-terminal(C18 diacid-gGlu), des1, 4Q, 30S, 31G]mimylin (peptide)
peptide: {C18 diacid-γGlu}-ASQLSTAALGRLSAELHELATLPRTETGSGSP-NH2
SMILES: CC(C)C[C@H](NC(=O)[C@H](C)NC(=O)[C@H](C)NC(=O)[C@@H](NC(=O)[C@H](CO)NC(=O)[C@H](CC(C)C)NC(=O)[C@H](CCC(N)=O)NC(=O)[C@H](CO)NC(=O)[C@H](C)NC(=O)CC[C@H](NC(=O)CCCCCCCCCCCCCCCCC(=O)O)C(=O)O)[C@@H](C)O)C(=O)NCC(=O)N[C@@H](CCCNC(=N)N)C(=O)N[C@@H](CC(C)C)C(=O)N[C@@H](CO)C(=O)N[C@@H](C)C(=O)N[C@@H](CCC(=O)O)C(=O)N[C@@H](CC(C)C)C(=O)N[C@@H](Cc1c[nH]cn1)C(=O)N[C@@H](CCC(=O)O)C(=O)N[C@@H](CC(C)C)C(=O)N[C@@H](C)C(=O)N[C@H](C(=O)N[C@@H](CC(C)C)C(=O)N1CCC[C@H]1C(=O)N[C@@H](CCCNC(=N)N)C(=O)N[C@H](C(=O)N[C@@H](CCC(=O)O)C(=O)N[C@H](C(=O)NCC(=O)N[C@@H](CO)C(=O)NCC(=O)N[C@@H](CO)C(=O)N1CCC[C@H]1C(N)=O)[C@@H](C)O)[C@@H](C)O)[C@@H](C)O
notes: also called Ex. #78
B2: [N-terminal(C18 diacid-gGlu), des1, 30S, 31G, 32P]mimylin (peptide)
peptide: {C18 diacid-γGlu}-ASELSTAALGRLSAELHELATLPRTETGSGPP-NH2
SMILES: CC(C)C[C@H](NC(=O)[C@H](C)NC(=O)[C@H](C)NC(=O)[C@@H](NC(=O)[C@H](CO)NC(=O)[C@H](CC(C)C)NC(=O)[C@H](CCC(=O)O)NC(=O)[C@H](CO)NC(=O)[C@H](C)NC(=O)CC[C@H](NC(=O)CCCCCCCCCCCCCCCCC(=O)O)C(=O)O)[C@@H](C)O)C(=O)NCC(=O)N[C@@H](CCCNC(=N)N)C(=O)N[C@@H](CC(C)C)C(=O)N[C@@H](CO)C(=O)N[C@@H](C)C(=O)N[C@@H](CCC(=O)O)C(=O)N[C@@H](CC(C)C)C(=O)N[C@@H](Cc1c[nH]cn1)C(=O)N[C@@H](CCC(=O)O)C(=O)N[C@@H](CC(C)C)C(=O)N[C@@H](C)C(=O)N[C@H](C(=O)N[C@@H](CC(C)C)C(=O)N1CCC[C@H]1C(=O)N[C@@H](CCCNC(=N)N)C(=O)N[C@H](C(=O)N[C@@H](CCC(=O)O)C(=O)N[C@H](C(=O)NCC(=O)N[C@@H](CO)C(=O)NCC(=O)N1CCC[C@H]1C(=O)N1CCC[C@H]1C(N)=O)[C@@H](C)O)[C@@H](C)O)[C@@H](C)O
notes: also called Ex. #75
B3: [N-terminal(C18 diacid-gGlu), des1, 5V, 9V, 10V, 30S, 31G]mimylin (peptide)
peptide: {C18 diacid-γGlu}-ASEVSTAVVGRLSAELHELATLPRTETGSGSP-NH2
SMILES: CC(C)C[C@H](NC(=O)[C@H](CCC(=O)O)NC(=O)[C@H](Cc1c[nH]cn1)NC(=O)[C@H](CC(C)C)NC(=O)[C@H](CCC(=O)O)NC(=O)[C@H](C)NC(=O)[C@H](CO)NC(=O)[C@H](CC(C)C)NC(=O)[C@H](CCCNC(=N)N)NC(=O)CNC(=O)[C@@H](NC(=O)[C@@H](NC(=O)[C@H](C)NC(=O)[C@@H](NC(=O)[C@H](CO)NC(=O)[C@@H](NC(=O)[C@H](CCC(=O)O)NC(=O)[C@H](CO)NC(=O)[C@H](C)NC(=O)CC[C@H](NC(=O)CCCCCCCCCCCCCCCCC(=O)O)C(=O)O)C(C)C)[C@@H](C)O)C(C)C)C(C)C)C(=O)N[C@@H](C)C(=O)N[C@H](C(=O)N[C@@H](CC(C)C)C(=O)N1CCC[C@H]1C(=O)N[C@@H](CCCNC(=N)N)C(=O)N[C@H](C(=O)N[C@@H](CCC(=O)O)C(=O)N[C@H](C(=O)NCC(=O)N[C@@H](CO)C(=O)NCC(=O)N[C@@H](CO)C(=O)N1CCC[C@H]1C(N)=O)[C@@H](C)O)[C@@H](C)O)[C@@H](C)O
notes: also called Ex. #96
B4: [N-terminal(C18 diacid-gGlu), des1, 5V, 9V, 10V, 20V, 30S, 31G]mimylin (peptide)
peptide: {C18 diacid-γGlu}-ASEVSTAVVGRLSAELHEVATLPRTETGSGSP-NH2
SMILES: CC(C)C[C@H](NC(=O)[C@H](CCCNC(=N)N)NC(=O)CNC(=O)[C@@H](NC(=O)[C@@H](NC(=O)[C@H](C)NC(=O)[C@@H](NC(=O)[C@H](CO)NC(=O)[C@@H](NC(=O)[C@H](CCC(=O)O)NC(=O)[C@H](CO)NC(=O)[C@H](C)NC(=O)CC[C@H](NC(=O)CCCCCCCCCCCCCCCCC(=O)O)C(=O)O)C(C)C)[C@@H](C)O)C(C)C)C(C)C)C(=O)N[C@@H](CO)C(=O)N[C@@H](C)C(=O)N[C@@H](CCC(=O)O)C(=O)N[C@@H](CC(C)C)C(=O)N[C@@H](Cc1c[nH]cn1)C(=O)N[C@@H](CCC(=O)O)C(=O)N[C@H](C(=O)N[C@@H](C)C(=O)N[C@H](C(=O)N[C@@H](CC(C)C)C(=O)N1CCC[C@H]1C(=O)N[C@@H](CCCNC(=N)N)C(=O)N[C@H](C(=O)N[C@@H](CCC(=O)O)C(=O)N[C@H](C(=O)NCC(=O)N[C@@H](CO)C(=O)NCC(=O)N[C@@H](CO)C(=O)N1CCC[C@H]1C(N)=O)[C@@H](C)O)[C@@H](C)O)[C@@H](C)O)C(C)C
B5: [N-terminal(C18 diacid-gGlu), des1, 6T, 9V, 14T, 21E, 30T, 31G, 32T]mimylin (peptide)
peptide: {C18 diacid-γGlu}-ASELTTAVLGRLTAELHELETLPRTETGTGTP-NH2
SMILES: CC(C)C[C@H](NC(=O)[C@H](CCC(=O)O)NC(=O)[C@H](C)NC(=O)[C@@H](NC(=O)[C@H](CC(C)C)NC(=O)[C@H](CCCNC(=N)N)NC(=O)CNC(=O)[C@H](CC(C)C)NC(=O)[C@@H](NC(=O)[C@H](C)NC(=O)[C@@H](NC(=O)[C@@H](NC(=O)[C@H](CC(C)C)NC(=O)[C@H](CCC(=O)O)NC(=O)[C@H](CO)NC(=O)[C@H](C)NC(=O)CC[C@H](NC(=O)CCCCCCCCCCCCCCCCC(=O)O)C(=O)O)[C@@H](C)O)[C@@H](C)O)C(C)C)[C@@H](C)O)C(=O)N[C@@H](Cc1c[nH]cn1)C(=O)N[C@@H](CCC(=O)O)C(=O)N[C@@H](CC(C)C)C(=O)N[C@@H](CCC(=O)O)C(=O)N[C@H](C(=O)N[C@@H](CC(C)C)C(=O)N1CCC[C@H]1C(=O)N[C@@H](CCCNC(=N)N)C(=O)N[C@H](C(=O)N[C@@H](CCC(=O)O)C(=O)N[C@H](C(=O)NCC(=O)N[C@H](C(=O)NCC(=O)N[C@H](C(=O)N1CCC[C@H]1C(N)=O)[C@@H](C)O)[C@@H](C)O)[C@@H](C)O)[C@@H](C)O)[C@@H](C)O
B6: [N-terminal(C18 diacid-gGlu), des1, 9V, 30S, 31G]mimylin (peptide)
peptide: {C18 diacid-γGlu}-ASELSTAVLGRLSAELHELATLPRTETGSGSP-NH2
SMILES: CC(C)C[C@H](NC(=O)[C@H](CCC(=O)O)NC(=O)[C@H](Cc1c[nH]cn1)NC(=O)[C@H](CC(C)C)NC(=O)[C@H](CCC(=O)O)NC(=O)[C@H](C)NC(=O)[C@H](CO)NC(=O)[C@H](CC(C)C)NC(=O)[C@H](CCCNC(=N)N)NC(=O)CNC(=O)[C@H](CC(C)C)NC(=O)[C@@H](NC(=O)[C@H](C)NC(=O)[C@@H](NC(=O)[C@H](CO)NC(=O)[C@H](CC(C)C)NC(=O)[C@H](CCC(=O)O)NC(=O)[C@H](CO)NC(=O)[C@H](C)NC(=O)CC[C@H](NC(=O)CCCCCCCCCCCCCCCCC(=O)O)C(=O)O)[C@@H](C)O)C(C)C)C(=O)N[C@@H](C)C(=O)N[C@H](C(=O)N[C@@H](CC(C)C)C(=O)N1CCC[C@H]1C(=O)N[C@@H](CCCNC(=N)N)C(=O)N[C@H](C(=O)N[C@@H](CCC(=O)O)C(=O)N[C@H](C(=O)NCC(=O)N[C@@H](CO)C(=O)NCC(=O)N[C@@H](CO)C(=O)N1CCC[C@H]1C(N)=O)[C@@H](C)O)[C@@H](C)O)[C@@H](C)O
notes: also called Ex. #76
B7: [N-terminal(C18 diacid-gGlu), des1, 6T, 9V, 30S, 31G]mimylin (peptide)
peptide: {C18 diacid-γGlu}-ASELTTAVLGRLSAELHELATLPRTETGSGSP-NH2
SMILES: CC(C)C[C@H](NC(=O)[C@H](CCC(=O)O)NC(=O)[C@H](Cc1c[nH]cn1)NC(=O)[C@H](CC(C)C)NC(=O)[C@H](CCC(=O)O)NC(=O)[C@H](C)NC(=O)[C@H](CO)NC(=O)[C@H](CC(C)C)NC(=O)[C@H](CCCNC(=N)N)NC(=O)CNC(=O)[C@H](CC(C)C)NC(=O)[C@@H](NC(=O)[C@H](C)NC(=O)[C@@H](NC(=O)[C@@H](NC(=O)[C@H](CC(C)C)NC(=O)[C@H](CCC(=O)O)NC(=O)[C@H](CO)NC(=O)[C@H](C)NC(=O)CC[C@H](NC(=O)CCCCCCCCCCCCCCCCC(=O)O)C(=O)O)[C@@H](C)O)[C@@H](C)O)C(C)C)C(=O)N[C@@H](C)C(=O)N[C@H](C(=O)N[C@@H](CC(C)C)C(=O)N1CCC[C@H]1C(=O)N[C@@H](CCCNC(=N)N)C(=O)N[C@H](C(=O)N[C@@H](CCC(=O)O)C(=O)N[C@H](C(=O)NCC(=O)N[C@@H](CO)C(=O)NCC(=O)N[C@@H](CO)C(=O)N1CCC[C@H]1C(N)=O)[C@@H](C)O)[C@@H](C)O)[C@@H](C)O
notes: also called Ex. #85

What follows are binders tested against T1, human calcitonin receptor (assay: whole-cell competition vs 125I-human calcitonin (Assay VIIa)).
Outline: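 BHK tk'ts 13 cells stably co-expressing human calcitonin receptor and a CRE-luciferase reporter, seeded overnight at 37 °C. Bound tracer counted by scintillation after cold HBSS washes and NaOH/SDS lysis; IC₅₀ from one-site competition fit taken as receptor affinity.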

Question: Which IC50 does the source give for B1 here?
Answer: 0.605 nM

Question: Which IC50 does the source give for {C18 diacid-γGlu}-ASELTTAVLGRLEAELHELTTLPRTETGTGTP-NH2 [[N-terminal(C18 diacid-gGlu), des1, 6T, 9V, 14E, 21T, 30T, 31G, 32T]mimylin] here?
Answer: 9.15 nM

Question: For B2, which IC50 is on record?
Answer: 20.5 nM

Question: How did the IC50 turn out when {C18 diacid-γGlu}-ASELTTAVLGRLSAELHELATLPRTETGTGTP-NH2 (also called Ex. #95) [[N-terminal(C18 diacid-gGlu), des1, 6T, 9V, 30T, 31G, 32T]mimylin] was run?
Answer: 1.7 nM

Question: Which IC50 does the source give for {C18 diacid-γGlu}-ASELTTAVLGRLSAELHELATLPRTETGSGTP-NH2 (also called Ex. #94) [[N-terminal(C18 diacid-gGlu), des1, 6T, 9V, 30S, 31G, 32T]mimylin] here?
Answer: 0.651 nM

Question: How did the IC50 turn out when B3 was run?
Answer: 0.767 nM

Question: Which IC50 does the source give for B4 here?
Answer: 1.24 nM

Question: How did the IC50 turn out when {C18 diacid-γGlu}-ASEVSTAVLGRLSAELHELATLPRTETGSGSP-NH2 (also called Ex. #86) [[N-terminal(C18 diacid-gGlu), des1, 5V, 9V, 30S, 31G]mimylin] was run?
Answer: 0.943 nM

Question: For B5, which IC50 is on record?
Answer: 17.3 nM

Question: How did the IC50 turn out when B6 was run?
Answer: 0.855 nM

Question: Which IC50 does the source give for B7 here?
Answer: 0.821 nM
